{
  "source": "paper PMC2914828",
  "target": "alternative complex III (ACIII) subunit s5 (Chloroflexus aurantiacus strain J-10-fl (endogenous))",
  "test": "cross-linking",
  "data": [
    {"substance": "alternative complex III (ACIII) subunit s5 (natural protein)", "values": [
      {"measurement": "stoichiometry N", "result": 2}
    ]}
  ]
}
